The text below walks through data of article PMC10021056 (Nature Communications, 2023).

The labels stand for the following.
B1: 201805_NiV_PL4_C5 (antibody, V domains shown)
VH: EVQLQQSGPELVKPGASMKISCKASGYSFTGYTMNWVKQSHGKNLEWIGLINPYIGGTSYNQKFKGKATLTVDKSSSTAYMELLSLTSEDSAVYYCARLLGREGYYFDYWGQGTTLTSLS
VL: DIQMTQTTSSLSASLGDRVTISCRASQDISNYLNWYQQKPDGTVKLLIYYTSRLHSGVPSRFSGSGSGTDYSLTISNLEQEDIATYFCQQGTTLPFTFGSGTKWKN
B2: 201805_NiV_PL4_D8 (antibody, V domains shown)
VH: EVQLQQSGPELVKPGASVKISCQASGYTFTDSNMNWVRQTHGKSLEWIGDVNPNNGGTSYNQRFKGKATLTVDKSSSTAYMEFRSLTSEDSAVYFCSRRALITTVVADYYGLDYWGQGTSVTVSA
VL: SIVMTQSPKFLLVSAGDRVTMTCKASQSVNSDVVWFQQKPGQSPKLLIYYASIRYTGVPDRFTGSGYGTDFTFTISPVQAEDLAVYFCQQDYSSPYTFGGGTKLEIK
B3: 201805_NiV_PL3_D4 (antibody, V domains shown)
VH: EVQLQQSGPELVKPGASVKMSCKASGYTFTSNVMHWVKQKPGQGLEWIGYINPYNDGTRYNEKFKGKATLTSDKSSSTAYMELSSLTSEDSAVYYCARRFYRGAMDYWGQGTSVTVSA
VL: NIVLHQSPASLAVSLGQRATISCRASESVDTYDNSFMHWYQQKPGQPPKLLIYLASKLESGVPARFSGSGSRTDFTLTIDPVEADDAATYYCQQNYEDPYTFGGGTKLEIK
B4: 201805_NiV_P1_H5 (antibody, V domains shown)
VH: EFQLQQSGPEVVKPGASVRISCKTSGYSFTDYNMNWVRQNNGRSLEWIGVINPNYGTFTYNQKFRGKATLTVDQSSSTAYMQLNSLTSADSAVYFCARAPDYYGINFYFDYWGQGTTLTVSA
VL: DVVMTQTPLSLPVSLGDQASISCRSSQSLVHSNGDTYLHWYLQKPGQSPKLLIYKVSNRFSGVPDRFSGSGSGTDFTLKISRVEAEDLGVYFCSQSTHVPPWTFGGGTKLEIK
B5: 201805_NiV_PL4_F4 (antibody, V domains shown)
VH: B4 VH with R19K, R38K, N40S, R43K, F58T, A89E, F95Y
VL: B4 VL with T7S
B6: 201805_NiV_PL3_C3 (antibody, V domains shown)
V domain 1: RFKLQQSGPELVKPGASMKISCKASGYSFTGYTMNWVKQSHGKNLEWIGLINPYIGGTSYNQKFKGKATLTVDKSSSTAYMELLSLTSEDSAVYYCARGGVYYGSNYDFDYWGQGTTLTSLS
V domain 2: DIQMTQTTSSLSASLGDRVTISCSASQGISNYLNWYQQKPDGTVKLLIYYTSSLHSGVPSRFSGSGSGTDYSLTISNLEPEDIATYYCQQYSKLPRTFGGGTKLKSN
B7: 201805_NiV_PL3_H11 (antibody, V domains shown)
VH: EVQLQQSGPELVKPGTSVKISCKASDYSFTGYFMNWVKQSHGKSLEWIGRINPYNGDTFYNQKFKGKATLTVDKSSSTAHMELLSLTSEDSAVYYCAAFDVYYPAWFAYWGQGTTVTVSS
VL: DIQMTQSSSSFSVSLGDRVTFTCKASEDIYNRLAWYQQKPGNAPRLLISGATSLETGVPSRFSGSGSGKDYTLTITSLQTEDVATYYCQQYWSIPWTFGGGTKLEIK

Positions count from the first letter of the chain named.

The target of this test is prefusion-stabilized NiV F (NiVop08) (Nipah virus, Malaysian strain, stabilised).
As to B1, the binding result is “binds”.

In the case of B2, the binding result is listed as “binds”. The value for B3 was “binds”; that for B4 was “binds”; that for B5 was “binds”. For B6, the binding result is listed as “binds”.

For the molecule B7, the binding result is given as “binds”.
